The record followed here is publication PMC9892613, “Thermodynamic analysis of an entropically driven, high-affinity nanobody-HIV p24 interaction” (Biophysical Journal, 2022).

This experiment deals with T1, HIV-1 capsid protein p24 (His-p24) (HIV-1 group M subtype B, NY5/NL4-3 …, UniProt P12493).
T1 construct: capsid protein p24 of HIV-1, the cut product of the Gag polyprotein; amplified from the template pWISP98-85 (NIH ARP); also called HIV-1 p24; p24 antigen; source: E. coli BL21-Star(DE3)pLysS, pET3a-His-p24, purified in-house; not shown: His6-Cys, N-terminal, kept
In words: BLI; in the same nanobody storage buffer (Fig. S5). The settings on record: both partners purified. On the technique in general: BLI is a label-free optical method that tracks binding on a fibre tip over time.

B1: nanobody 48G11 (59H10 F93D) (VHH)
VHH: DVQLQESGGGLVQAGGSLRLSCAASGSISRFNAMGWWRQAPGKEREFVARIVKGFDPVLADSVKGRFTISIDSAENTLALQMNRLKPEDTAVYYCDAALDTAYWGQGTQVTVSS
notes: as the chain of m2 (59H10, PDB 5O2U chain B) with F93D; made by site-directed mutagenesis; Artificial variant of 59H10 with one changed residue; also called 48G11 (F93D)
In the case of B1, the binding result is “no binding”.
